Laboratory results reported in patent publication US20140087995A1 (published 2014).
Numbered stars: 1 amine (or outer) side, 2 acyl side, 3 side chain; on linkers, the order of the positions; unused ones are H or OH. Bridge positions count the residues as written; N and C are the ends. Side chains are listed from the residue outwards. Ends that are not written are not given here. * marks the point of attachment. C20 diacid = O=C(O)CCCCCCCCCCCCCCCCCCC(=O)*; γGlu = O=C(O)[C@H](CCC(=O)[*:2])N[*:1]

T1: human amylin 3(a) receptor (human calcitonin receptor + RAMP-3) (human, UniProt P30988 25-474; O60896 24-148, limits assumed)
T1 sequence (looked up) 1: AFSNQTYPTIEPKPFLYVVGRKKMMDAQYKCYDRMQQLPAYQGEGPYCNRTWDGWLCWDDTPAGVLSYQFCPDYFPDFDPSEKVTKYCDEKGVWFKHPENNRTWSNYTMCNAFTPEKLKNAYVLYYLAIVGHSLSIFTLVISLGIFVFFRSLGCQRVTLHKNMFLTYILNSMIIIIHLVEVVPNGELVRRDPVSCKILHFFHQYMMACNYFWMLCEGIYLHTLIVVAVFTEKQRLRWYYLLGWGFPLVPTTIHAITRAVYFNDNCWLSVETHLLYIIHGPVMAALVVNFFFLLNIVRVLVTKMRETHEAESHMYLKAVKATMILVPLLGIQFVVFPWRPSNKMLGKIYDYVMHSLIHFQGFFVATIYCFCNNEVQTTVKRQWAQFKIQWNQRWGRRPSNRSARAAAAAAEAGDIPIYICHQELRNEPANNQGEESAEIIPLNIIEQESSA
T1 sequence (looked up) 2: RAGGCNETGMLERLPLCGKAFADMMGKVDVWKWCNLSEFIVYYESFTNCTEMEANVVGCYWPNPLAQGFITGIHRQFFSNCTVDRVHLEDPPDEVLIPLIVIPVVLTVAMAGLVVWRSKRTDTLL

T2: human calcitonin receptor (human, UniProt P30988 25-474)
T2 sequence (looked up): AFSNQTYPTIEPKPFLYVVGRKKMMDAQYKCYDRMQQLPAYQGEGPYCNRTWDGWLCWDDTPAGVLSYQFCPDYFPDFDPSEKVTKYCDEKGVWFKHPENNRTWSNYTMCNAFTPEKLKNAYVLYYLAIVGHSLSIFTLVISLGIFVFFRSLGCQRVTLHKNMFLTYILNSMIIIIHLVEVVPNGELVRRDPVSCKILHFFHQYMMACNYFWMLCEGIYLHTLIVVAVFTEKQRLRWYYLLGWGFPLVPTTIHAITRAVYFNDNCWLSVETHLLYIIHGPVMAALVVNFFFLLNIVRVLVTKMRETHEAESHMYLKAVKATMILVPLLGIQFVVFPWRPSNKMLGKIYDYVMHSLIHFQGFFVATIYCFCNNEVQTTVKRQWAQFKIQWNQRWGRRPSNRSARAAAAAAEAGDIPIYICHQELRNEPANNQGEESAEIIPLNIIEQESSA


Tests used:
[1] = target: T1, human amylin 3(a) receptor (human …); test: cell-based or functional assay
[2] = target: T2, human calcitonin receptor; test: cell-based or functional assay

Row | hAmylin-R funct. EC50 (pM) [1] | Ratio hCT/hAmylin funct. [2] | hCTR funct. EC50 (pM) [2] | Binder
1 | 154 pM | 4.8 | – | {C20 diacid-γGlu}-KCNTATCATQRLAEFLRHSSPNFGAIPSSTNVGSHTY-NH2 (disulfide 2-7; SMILES CC[C@H](C)[C@H](NC(=O)[C@H](C)NC(=O)CNC(=O)[C@H](Cc1ccccc1)NC(=O)[C@H](CC(N)=O)NC(=O)[C@@H]1CCCN1C(=O)[C@H](CO)NC(=O)[C@H](CO)NC(=O)[C@H](Cc1c[nH]cn1)NC(=O)[C@H](CCCNC(=N)N)NC(=O)[C@H](CC(C)C)NC(=O)[C@H](Cc1ccccc1)NC(=O)[C@H](CCC(=O)O)NC(=O)[C@H](C)NC(=O)[C@H](CC(C)C)NC(=O)[C@H](CCCNC(=N)N)NC(=O)[C@H](CCC(N)=O)NC(=O)[C@@H](NC(=O)[C@H](C)NC(=O)[C@@H]1CSSC[C@H](NC(=O)[C@H](CCCCN)NC(=O)CC[C@H](NC(=O)CCCCCCCCCCCCCCCCCCC(=O)O)C(=O)O)C(=O)N[C@@H](CC(N)=O)C(=O)N[C@@H]([C@@H](C)O)C(=O)N[C@@H](C)C(=O)N[C@@H]([C@@H](C)O)C(=O)N1)[C@@H](C)O)C(=O)N1CCC[C@H]1C(=O)N[C@@H](CO)C(=O)N[C@@H](CO)C(=O)N[C@H](C(=O)N[C@@H](CC(N)=O)C(=O)N[C@H](C(=O)NCC(=O)N[C@@H](CO)C(=O)N[C@@H](Cc1c[nH]cn1)C(=O)N[C@H](C(=O)N[C@@H](Cc1ccc(O)cc1)C(N)=O)[C@@H](C)O)C(C)C)[C@@H](C)O, also called compound 18)
2 | 270 pM | 3.8 | – | {C20 diacid-γGlu}-KCNTATCATQRLAEFLRHSSPNFGAIPSSTNVGSETY-NH2 (disulfide 2-7; SMILES CC[C@H](C)[C@H](NC(=O)[C@H](C)NC(=O)CNC(=O)[C@H](Cc1ccccc1)NC(=O)[C@H](CC(N)=O)NC(=O)[C@@H]1CCCN1C(=O)[C@H](CO)NC(=O)[C@H](CO)NC(=O)[C@H](Cc1c[nH]cn1)NC(=O)[C@H](CCCNC(=N)N)NC(=O)[C@H](CC(C)C)NC(=O)[C@H](Cc1ccccc1)NC(=O)[C@H](CCC(=O)O)NC(=O)[C@H](C)NC(=O)[C@H](CC(C)C)NC(=O)[C@H](CCCNC(=N)N)NC(=O)[C@H](CCC(N)=O)NC(=O)[C@@H](NC(=O)[C@H](C)NC(=O)[C@@H]1CSSC[C@H](NC(=O)[C@H](CCCCN)NC(=O)CC[C@H](NC(=O)CCCCCCCCCCCCCCCCCCC(=O)O)C(=O)O)C(=O)N[C@@H](CC(N)=O)C(=O)N[C@@H]([C@@H](C)O)C(=O)N[C@@H](C)C(=O)N[C@@H]([C@@H](C)O)C(=O)N1)[C@@H](C)O)C(=O)N1CCC[C@H]1C(=O)N[C@@H](CO)C(=O)N[C@@H](CO)C(=O)N[C@H](C(=O)N[C@@H](CC(N)=O)C(=O)N[C@H](C(=O)NCC(=O)N[C@@H](CO)C(=O)N[C@@H](CCC(=O)O)C(=O)N[C@H](C(=O)N[C@@H](Cc1ccc(O)cc1)C(N)=O)[C@@H](C)O)C(C)C)[C@@H](C)O, also called compound 22)
3 | 105 pM | 0.9 | – | K([γGlu-C20 diacid])CNTATCATQRLAEFLRHSSPNFGAIPSSTNVGPNTP-NH2 (disulfide 2-7; N-terminus assumed; SMILES CC[C@H](C)[C@H](NC(=O)[C@H](C)NC(=O)CNC(=O)[C@H](Cc1ccccc1)NC(=O)[C@H](CC(N)=O)NC(=O)[C@@H]1CCCN1C(=O)[C@H](CO)NC(=O)[C@H](CO)NC(=O)[C@H](Cc1c[nH]cn1)NC(=O)[C@H](CCCNC(=N)N)NC(=O)[C@H](CC(C)C)NC(=O)[C@H](Cc1ccccc1)NC(=O)[C@H](CCC(=O)O)NC(=O)[C@H](C)NC(=O)[C@H](CC(C)C)NC(=O)[C@H](CCCNC(=N)N)NC(=O)[C@H](CCC(N)=O)NC(=O)[C@@H](NC(=O)[C@H](C)NC(=O)[C@@H]1CSSC[C@H](NC(=O)[C@@H](N)CCCCNC(=O)CC[C@H](NC(=O)CCCCCCCCCCCCCCCCCCC(=O)O)C(=O)O)C(=O)N[C@@H](CC(N)=O)C(=O)N[C@@H]([C@@H](C)O)C(=O)N[C@@H](C)C(=O)N[C@@H]([C@@H](C)O)C(=O)N1)[C@@H](C)O)C(=O)N1CCC[C@H]1C(=O)N[C@@H](CO)C(=O)N[C@@H](CO)C(=O)N[C@H](C(=O)N[C@@H](CC(N)=O)C(=O)N[C@H](C(=O)NCC(=O)N1CCC[C@H]1C(=O)N[C@@H](CC(N)=O)C(=O)N[C@H](C(=O)N1CCC[C@H]1C(N)=O)[C@@H](C)O)C(C)C)[C@@H](C)O)
4 | 92 pM | 4 | – | {C20 diacid-γGlu}-KCNTATCATQRLAEFLRHSSPNFGAIPSPTNVGSNTY-NH2 (disulfide 2-7; SMILES CC[C@H](C)[C@H](NC(=O)[C@H](C)NC(=O)CNC(=O)[C@H](Cc1ccccc1)NC(=O)[C@H](CC(N)=O)NC(=O)[C@@H]1CCCN1C(=O)[C@H](CO)NC(=O)[C@H](CO)NC(=O)[C@H](Cc1c[nH]cn1)NC(=O)[C@H](CCCNC(=N)N)NC(=O)[C@H](CC(C)C)NC(=O)[C@H](Cc1ccccc1)NC(=O)[C@H](CCC(=O)O)NC(=O)[C@H](C)NC(=O)[C@H](CC(C)C)NC(=O)[C@H](CCCNC(=N)N)NC(=O)[C@H](CCC(N)=O)NC(=O)[C@@H](NC(=O)[C@H](C)NC(=O)[C@@H]1CSSC[C@H](NC(=O)[C@H](CCCCN)NC(=O)CC[C@H](NC(=O)CCCCCCCCCCCCCCCCCCC(=O)O)C(=O)O)C(=O)N[C@@H](CC(N)=O)C(=O)N[C@@H]([C@@H](C)O)C(=O)N[C@@H](C)C(=O)N[C@@H]([C@@H](C)O)C(=O)N1)[C@@H](C)O)C(=O)N1CCC[C@H]1C(=O)N[C@@H](CO)C(=O)N1CCC[C@H]1C(=O)N[C@H](C(=O)N[C@@H](CC(N)=O)C(=O)N[C@H](C(=O)NCC(=O)N[C@@H](CO)C(=O)N[C@@H](CC(N)=O)C(=O)N[C@H](C(=O)N[C@@H](Cc1ccc(O)cc1)C(N)=O)[C@@H](C)O)C(C)C)[C@@H](C)O, also called compound 37)

Continued, binder first:

Row | Binder | hAmylin-R funct. EC50 (pM) [1] | Ratio hCT/hAmylin funct. [2] | hCTR funct. EC50 (pM) [2]
5 | K([γGlu-C20 diacid])CNTATCATQRLADFLRHSSPNFGAIPSSTNVGPETY-NH2 (disulfide 2-7; N-terminus assumed; SMILES CC[C@H](C)[C@H](NC(=O)[C@H](C)NC(=O)CNC(=O)[C@H](Cc1ccccc1)NC(=O)[C@H](CC(N)=O)NC(=O)[C@@H]1CCCN1C(=O)[C@H](CO)NC(=O)[C@H](CO)NC(=O)[C@H](Cc1c[nH]cn1)NC(=O)[C@H](CCCNC(=N)N)NC(=O)[C@H](CC(C)C)NC(=O)[C@H](Cc1ccccc1)NC(=O)[C@H](CC(=O)O)NC(=O)[C@H](C)NC(=O)[C@H](CC(C)C)NC(=O)[C@H](CCCNC(=N)N)NC(=O)[C@H](CCC(N)=O)NC(=O)[C@@H](NC(=O)[C@H](C)NC(=O)[C@@H]1CSSC[C@H](NC(=O)[C@@H](N)CCCCNC(=O)CC[C@H](NC(=O)CCCCCCCCCCCCCCCCCCC(=O)O)C(=O)O)C(=O)N[C@@H](CC(N)=O)C(=O)N[C@@H]([C@@H](C)O)C(=O)N[C@@H](C)C(=O)N[C@@H]([C@@H](C)O)C(=O)N1)[C@@H](C)O)C(=O)N1CCC[C@H]1C(=O)N[C@@H](CO)C(=O)N[C@@H](CO)C(=O)N[C@H](C(=O)N[C@@H](CC(N)=O)C(=O)N[C@H](C(=O)NCC(=O)N1CCC[C@H]1C(=O)N[C@@H](CCC(=O)O)C(=O)N[C@H](C(=O)N[C@@H](Cc1ccc(O)cc1)C(N)=O)[C@@H](C)O)C(C)C)[C@@H](C)O) | 288 pM | 3.9 | 1120 pM
6 | K([γGlu-C20 diacid])CNTATCATQRLAAFLRHSSPNFGAIPSSTNVGPNTY-NH2 (disulfide 2-7; N-terminus assumed; SMILES CC[C@H](C)[C@H](NC(=O)[C@H](C)NC(=O)CNC(=O)[C@H](Cc1ccccc1)NC(=O)[C@H](CC(N)=O)NC(=O)[C@@H]1CCCN1C(=O)[C@H](CO)NC(=O)[C@H](CO)NC(=O)[C@H](Cc1c[nH]cn1)NC(=O)[C@H](CCCNC(=N)N)NC(=O)[C@H](CC(C)C)NC(=O)[C@H](Cc1ccccc1)NC(=O)[C@H](C)NC(=O)[C@H](C)NC(=O)[C@H](CC(C)C)NC(=O)[C@H](CCCNC(=N)N)NC(=O)[C@H](CCC(N)=O)NC(=O)[C@@H](NC(=O)[C@H](C)NC(=O)[C@@H]1CSSC[C@H](NC(=O)[C@@H](N)CCCCNC(=O)CC[C@H](NC(=O)CCCCCCCCCCCCCCCCCCC(=O)O)C(=O)O)C(=O)N[C@@H](CC(N)=O)C(=O)N[C@@H]([C@@H](C)O)C(=O)N[C@@H](C)C(=O)N[C@@H]([C@@H](C)O)C(=O)N1)[C@@H](C)O)C(=O)N1CCC[C@H]1C(=O)N[C@@H](CO)C(=O)N[C@@H](CO)C(=O)N[C@H](C(=O)N[C@@H](CC(N)=O)C(=O)N[C@H](C(=O)NCC(=O)N1CCC[C@H]1C(=O)N[C@@H](CC(N)=O)C(=O)N[C@H](C(=O)N[C@@H](Cc1ccc(O)cc1)C(N)=O)[C@@H](C)O)C(C)C)[C@@H](C)O, also called compound 94) | 70 pM | 4.5 | –
